# Test results as given in patent publication US12649783B2, “Anti-MCT1 antibodies and uses thereof” (IMMUNEXT INC., priority 2018, dated 2026).
# T1: MCT1 on T cells (Homo sapiens, UniProt P53985)
# T1 construct: endogenous in cells
# T1 sequence (P53985 1-500): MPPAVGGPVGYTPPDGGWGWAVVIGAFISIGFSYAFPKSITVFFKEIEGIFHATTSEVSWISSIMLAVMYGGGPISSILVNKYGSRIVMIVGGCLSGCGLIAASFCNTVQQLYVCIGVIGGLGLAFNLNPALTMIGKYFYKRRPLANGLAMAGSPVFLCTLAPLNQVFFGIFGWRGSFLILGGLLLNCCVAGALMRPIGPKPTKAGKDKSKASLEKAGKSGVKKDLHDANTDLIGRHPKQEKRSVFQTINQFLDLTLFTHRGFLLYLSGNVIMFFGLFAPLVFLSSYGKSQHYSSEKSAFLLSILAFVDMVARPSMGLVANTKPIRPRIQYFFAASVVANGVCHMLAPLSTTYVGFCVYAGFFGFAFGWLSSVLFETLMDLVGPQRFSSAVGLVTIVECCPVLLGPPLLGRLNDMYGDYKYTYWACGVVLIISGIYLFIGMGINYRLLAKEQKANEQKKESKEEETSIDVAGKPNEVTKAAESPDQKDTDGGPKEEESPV
# T2: MCT1 transport of lactate (Homo sapiens, UniProt P53985)
# T2 construct: endogenous in cells
# T2 sequence (P53985 1-500): T1 sequence (P53985 1-500)
# T3: MCT1 on the surface of human PBMCs (Homo sapiens, UniProt P53985)
# T3 construct: endogenous in cells; host or cells: human PBMCs (unstimulated and stimulated)
# T3 sequence (P53985 1-500): T1 sequence (P53985 1-500)
# T4: MCT1 (Homo sapiens, UniProt P53985)
# T4 construct: HEK-293 WT cells only express MCT1/CD147 and no other MCTs as measured by RT-PCR; endogenous in cells; host or cells: HEK293T
# T4 sequence (P53985 1-500): T1 sequence (P53985 1-500)
# T5: rat MCT1 (Rattus norvegicus, UniProt P53987)
# T5 construct: endogenous in cells; host or cells: rat PBMCs
# T5 sequence (P53987 1-494): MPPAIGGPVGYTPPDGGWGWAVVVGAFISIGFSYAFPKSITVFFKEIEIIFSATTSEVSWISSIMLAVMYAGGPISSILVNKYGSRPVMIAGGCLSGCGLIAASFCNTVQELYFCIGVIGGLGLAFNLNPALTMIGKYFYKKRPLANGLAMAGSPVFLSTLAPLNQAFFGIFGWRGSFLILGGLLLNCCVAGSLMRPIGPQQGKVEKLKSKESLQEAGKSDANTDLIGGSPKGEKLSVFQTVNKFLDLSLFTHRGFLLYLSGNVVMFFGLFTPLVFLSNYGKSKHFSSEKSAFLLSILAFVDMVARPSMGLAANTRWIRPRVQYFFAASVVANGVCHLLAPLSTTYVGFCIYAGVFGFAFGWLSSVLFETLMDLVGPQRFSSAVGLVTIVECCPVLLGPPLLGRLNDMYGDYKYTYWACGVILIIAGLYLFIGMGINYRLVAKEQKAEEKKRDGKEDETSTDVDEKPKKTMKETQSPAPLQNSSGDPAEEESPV
# B1: MCT1 Ab1: rat anti-human MCT1 monoclonal antibody (rat/human chimera); VH/VL SEQ ID NO: 2/3 (antibody, V domains shown)
# VH: QVQLKATGPGLVQPTQTLSITCTVSGFSLTNYHLQWVRQTPGKGLEWMGFIRSSGNTEYNSEFKSRLSISRDTSKNQVFLKMNSLKTDDTGVYYCARNSWYHGTYYSPGYYVMDAWGQGASVTVSS
# VL: NIHLTQSPSLLSASVGDRVTLSCKGSQNINNYLAWFQQKFGETPKLLIYNRHNLQTGIPSRFSGSGSGTDYTLTINSLQPEDVATYFCYQYSDGYTFGAGTKLELK
# modifications: MCT1 Ab1 (INX310) VH; MCT1 Ab1 (INX310) VL
# B2: IL-7: Recombinant Human IL-7 (carrier-free), Biolegend 581904 (protein, UniProt P13232 26-177, looked up)
# Interleukin-7: DCDIEGKDGKQYESVLMVSIDQLLDSMKEIGSNCLNNEFNFFKRHICDANKEGMFLFRAARKLRQFLKMNSTGDFDLHLLKVSEGTTILLNCTGQVKGRKPAALGEAQPTKSLEENKSLKEQKKLNDLCFLKRLLQEIKTCWNKILMGTKEH
# B3: LM183: chicken anti-human MCT1 antibody; HC/LC SEQ ID NO: 164/169 (antibody)
# heavy: AVTLDESGGGLQTPGGTLSLVCKASGFDFSNYEMLWVRQAPGKGLEYVAGIGDSASYSAYGVAVKGRATISRDNGQSTLRLQLNGLRAEDTGTYYCTKASEGSYWYYEAGGIDTWGHGTEVIVSS
# light: ALTQPSSVSANLGGTVKITCSGGGGSYGWYQQKSPGSAPVTVIYDNDKRPSDIPSRFSGSKSGSTATLTITGVRAEDEAVYYCGSAGNSGAFGAGTTLTVL
# modifications: HC Protein; LC Protein
# B4: LM186: chicken anti-human MCT1 antibody; HC/LC SEQ ID NO: 184/189 (antibody)
# heavy: AVTLDESGGGLQTPGGGLSLVCKASGFSFSSRGMFWVRQAPGKGLEYVAGIDNDGGYPNYGSAVKGRATISRDNRQSTVRLQLNNLRADDTGTYYCAKGAYGGGWYAASSIDAWGHGTEVIVSS
# light: ALTQPSSVSANPGEAVKITCSGGVGQWYGWFQQKAPGSAPVTVIHDNTNRPSDIPSRFSGSKSGSTGTLTITGVQAEDEAVYFCANTYSDGNDAPFGAGTTLTVL
# modifications: HC Protein; LC Protein
# Legend:
# [1] = test system: Tr1 cells; assay: ex vivo Tr1 survival; assay type: cell-based, human
# Experimental: Humanized NSG mice (treated with anti-MCT1) were sacrificed on d32 or other day specified, single cells suspensions were prepared from spleens, followed by bead-based enrichment of hCD3+ cells. Isolated cells were plated with the analytes (see above table) to access Tr1 survival: […]
# [2] = PK in cynos; assay type: in vivo, cynomolgus monkey; conditions: preliminary PK data
# [3] = test system: T cell proliferation; assay: T cell proliferation assay (CD3/CD28 stimulated); assay type: cell-based, human; conditions: CD3/CD28 stimulated cultures; read-out: EC50 inhibition of T cell proliferation
# Experimental: MCT1, MCT2, MCT4, and BSG (CD147) expression were measured in unstimulated and stimulated leukocytes from two different donors. For the “stimulated” condition, cells were CD3/CD28 activated for 3 days. Stimulated cells were tested for inhibition of proliferation by AZ3965.
# Human T cell proliferation.
# (§1) Inhibition of T cell proliferation, inflammatory cytokine production, and allogeneic activation. […] An anti-MCT1 antibody or antibody fragment of the invention may also be tested for its ability to inhibit the production of inflammatory cytokines, relative to controls, in stimulated T cells on day 3 post-stimulation. MCT1 Ab1As with CD3/CD28 activation, MCT1 Ab1 inhibited allogeneic activation by 50-60% in a human mixed lymphocyte reaction (see, e.g., FIG. 17).
# [4] = test system: human T cells; assay: metabolomics of treated T cells; assay type: cell-based; conditions: preliminary
# [5] = test system: allogeneic activation / T cell proliferation; assay: human mixed lymphocyte reaction (MLR); assay type: cell-based
# From the text: Human mixed lymphocyte reaction (MLR).
# as §1
# [6] = molecular target: T1, MCT1 on T cells; assay: staining of naive and activated T cells; assay type: binding
# From the text: The only staining in FIG. 13A corresponds to nucleus staining, confirming the presence of the naïve T cells.
# MCT1 Ab1 binding to activated T cells. […] This binding confirms the expression data presented in FIG. 2 and confirms the prediction based on mRNA analysis.
# [7] = molecular target: T2, MCT1 transport of lactate; assay: lactate FLIPR assay; assay type: cell-based; conditions: activated T cells; FLIPR Tetra, BCECF; read-out: Kd for block of lactate transport
# From the text: Effects on lactate transport.
# Inhibition of lactate transport.
# [8] = molecular target: T3, MCT1 on the surface of human PBMCs; assay: flow cytometry binding to PBMCs, human
# From the text: (§2) FIG. 12A-D show the cross-reactivity of MCT1 Ab1 as assessed via flow cytometry measurements of binding to MCT1 on the surface of different species' PBMCs.
# (§3) Binding affinity and MCT1 cross-reactivity. […] MCT1 Ab1 is also highly cross-reactive with cynomolgus (cyno) and rabbit MCT1, but not with rodent MCT1 (FIG. 12A-D).
# [9] = test system: xeno-GVHD; assay: xeno-GvHD model with anti-MCT1 antibodies (human PBMC into NSG mice); assay type: in vivo, mouse
# Experimental: In this model of GvHD animals male NSG mice are treated with sub-lethal irradiation (250 rad), and afterward these mice receive 2.5×10^6 of fresh human PBMC (day 0). First dose of anti-human MCT1 is combined with cells and injected i.v. The follow up treatment schedule is weekly (day 7, 14 and 21, IP).
# For re-challenge experiments previously treated with anti-MCT1 (days 0, 7, 14, 21) NSG mice receive a second dose of 2.5×10^6 of previously frozen human PBMC of the same donor (day 42). Survival and weight loss of these mice is monitored with no additional antibody treatments and compared to a new cohort of NSG mice receiving same donor PBMCs.
# 100 ul of total blood is used for analysis: blood was stained using a Stain-1 wash protocol to allow absolute cell count with Ab panel below followed by FACS lysis buffer 1× (BD Bioscience, #349202); whole blood was incubated with a 10× antibody (shown below) and after 30 min, the blood was lysed in a large volume of 1× lysis buffer (at least 6 times) following manufacturer instructions; or blood was first lysed with ACK (10 min), washed in PBS and stained with antibody mix, exactly as described in the table below.
# [10] = test system: cynomolgus MCT1; assay: flow cytometry binding to PBMCs, cynomolgus
# From the text: as §2, §3
# [11] = molecular target: T4, MCT1; assay: bromopyruvate toxicity assay (ATPlite); assay type: cell-based
# Experimental: Inhibition of bromopyruvate toxicity. Since MCT1 is the sole transporter necessary for the in vitro efficacy of the anti-cancer toxin bromopyruvate (Reference 66), a second cell-based functional assay was developed to measure the in vitro killing of cells using this toxin at a concentration of 150 μM.
# HEK293T cells are pre-treated with anti-MCT1 antibody or small molecular MCT1 inhibitor at 37° C. for 1 hour. Cells are then incubated with a cytotoxic reagent 3-bromopyruvate (3-BrPy) at concentrations that rand from 25 to 500 μM for 2 to 6 hours. ATP from dying cells will be quantified using a commercial viability kit (ATPlite, PerkinElmer) in a 96-well plate and viability measured using luminescence. Reduction of ATP production indicates functionality of the antibody. A positive control antibody is the mouse or chimeric antibody before humanization. A negative control cell line is MCT1/CD147 double knockout 293T cells. Using this assay functional, i.e., antagonistic anti-MCT1 antibodies may be identified.
# [12] = test system: CD4+ and CD8+ T cells; assay: proliferation of CD4+ and CD8+ T cells; assay type: cell-based; conditions: different antibody concentrations
# [13] = repeated dosing safety in cynomolgus monkeys; assay type: in vivo, cynomolgus monkey
# From the text: In order to further corroborate the safety and efficacy of anti-MCT1 antibodies for human therapy we administered dosages of 50 mpk of anti-human MCT1 antibodies to cynomolgus monkeys. As disclosed in this example and corroborated by the figure referenced herein no toxicity was observed after 30 days.
# As shown in FIG. 23 cynomolgus red blood cells (RBCs) express high levels of MCT1. Based thereon we tested the effects of antagonistic anti-MCT1 antibodies in cyno monkeys and in particular looked at any effects on RBCs after anti-MCT1 antibody dosing. Also, we determined whether cynos could tolerate a therapeutic effective dosage of the antibody.
# [14] = molecular target: T5, rat MCT1; assay: flow cytometry binding to PBMCs, rat
# From the text: as §2, §3
# [15] = test system: human RBC lactate transport; assay: FLIPR lactate transport in purified human RBCs; assay type: cell-based; conditions: 10 mM lactate
# Experimental: MCT1 Ab1 and AZ3965 were used to inhibit MCT1 lactate transport in purified human RBCs using FLIPR based transport assays (REF. 1, 2) in the presence of 10 mM lactate. The levels of lactate transport were compared to a no lactate control condition and a no inhibitor condition in the presence of lactate.
# [16] = test system: rabbit MCT1; assay: flow cytometry binding to PBMCs, rabbit
# From the text: as §2, §3
molecule,measurement,setting,value
"IL-15: Recombinant Human IL-15 (carrier-free), Biolegend 570304",ex vivo Tr1 survival,[1],increased ex vivo Tr1 survival in a dose-dependent manner
B1,dose rate at which the RBC sink is saturated,[2],≥ 5 mpk
same,EC50,[3],1.3 nM
same,metabolomics findings in treated T cells,[4],"improved generation of ATP and NADH, along with increased oxidative metabolism and viability"
same,inhibition of allogeneic activation,[5],50-60%
same,staining of activated T cells,"[6]; CD3/CD28 activated cells, day 3",stains the surface of CD3/CD28 activated cells on day 3
same,staining of naive T cells,[6]; naïve cells,does not stain naïve cells
same,Kd,[7],7.6 nM
same,binding to MCT1 on PBMCs,[8],binds to MCT1 on the surface of human PBMCs
same,"number of CD3+, CD4+ and CD8+ effector T cells",[9]; compared to NSG mice treated with control antibody,"significant decrease in the number of CD3^+, CD4^+ and CD8^+ effector T cells"
same,Tr1 cells,[9]; compared to control antibody,increases in Tr1 cells
same,MABEL in xeno-GVHD,"[9]; mouse, in vivo",~1 mpk
same,"survival, long-term protection and tolerance",[9]; re-challenge at day 42 with PBMC of the same donor,"increased survival, long-term protection and tolerance induction"
same,binding to MCT1 on PBMCs,[10],binds to cynomolgus MCT1
same,Kd,"[11]; bromopyruvate 150 μM, ATPlite, read-out: Kd for inhibition of bromopyruvate toxicity (protection from cell death)",1.2 nM
same,proliferation of CD4+ and CD8+ T cells,[12],inhibited the proliferation of CD4^+ and CD8^+ T cells
same,"histological findings (heart, muscle, testis and eye, H & E)",[13]; 4 weekly doses at 50 mpk,no adverse histological findings
same,in-life toxicity,"[13]; 30 days, 4 weekly doses at 50 mpk",no significant in-life toxicity
same,RBC mass after dosing,"[13]; cynos, 50 mpk",initial reduction of RBC mass after dosing this resolves after a short time
same,tolerability of repeated dosing,"[13]; cynos, 50 mpk",tolerate repeated dosing
same,binding to MCT1 on PBMCs,[14],does not bind to rat MCT1
same,lactate transport in human RBCs,[15],unaffected
same,binding to MCT1 on PBMCs,[16],binds to rabbit MCT1
B2,ex vivo Tr1 survival,[1],increased ex vivo Tr1 survival in a dose-dependent manner
B3,block of human MCT1 function,[11],block human MCT1 function
B4,block of human MCT1 function,[11],block human MCT1 function
